From paper doi:10.1101/2021.08.28.458030

Target: T1, Human fumarase (human), P07954
T1 chain: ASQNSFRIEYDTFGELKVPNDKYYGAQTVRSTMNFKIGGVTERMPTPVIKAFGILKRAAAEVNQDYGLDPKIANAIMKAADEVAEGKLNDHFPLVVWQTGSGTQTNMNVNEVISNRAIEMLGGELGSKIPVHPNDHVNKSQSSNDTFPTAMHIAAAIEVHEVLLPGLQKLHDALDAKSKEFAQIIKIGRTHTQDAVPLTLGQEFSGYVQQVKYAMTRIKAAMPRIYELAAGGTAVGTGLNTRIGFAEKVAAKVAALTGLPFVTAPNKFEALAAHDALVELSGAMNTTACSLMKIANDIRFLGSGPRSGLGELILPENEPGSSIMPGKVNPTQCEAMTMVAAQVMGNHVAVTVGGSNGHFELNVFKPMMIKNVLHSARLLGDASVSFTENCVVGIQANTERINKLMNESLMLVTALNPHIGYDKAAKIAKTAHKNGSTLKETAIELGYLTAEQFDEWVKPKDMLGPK
Assay: crystal structure
Conditions: remark: other sources report otherwise

- stoichiometry N: 4
B1: Human fumarase, P07954 45-510 (enzyme)
chain: T1 chain
